For assay [1], the target named is Recombinant His-tagged AUREO1c protein (Phaeodactylum tricornutum aureochrome 1c) (Phaeodactylum tricornutum). Briefly: native MS; UHPLC-native MS (Waters BEH SEC column, 100 mM ammonium acetate, room temperature); 5 uM protein in PBS incubated in the dark for 60 min, then cross-linked with 5 uM BS3 and quenched with Tris. A general note: In gel filtration, larger molecules generally elute earlier.

For assay [2] the target is unchanged. Briefly: native MS; UHPLC-native MS (Waters BEH SEC column, 100 mM ammonium acetate, room temperature); 5 uM protein in PBS incubated under blue light (200 umol photons m^-2 s^-1) for 60 min, then cross-linked with 5 uM BS3 and quenched with Tris.

A word on the stoichiometry N: it is the number of molecules, sites or subunits per partner or assembly. Turning to “Recombinant His-tagged AUREO1c protein (Phaeodactylum tricornutum aureochrome 1c) (natural protein)”, the stoichiometry N in assay [1] and in assay [2] was 2 in each case.

Source of the values: PMC11219949.
